± gives the standard deviation of the averaged measurements.
test system: ATP; experiment: switch fluorescence ratio, 500 uM ATP over buffer (Cy3 cluster intensity, sum of 5 cycles each) (fold (ratio)); higher = stronger signal-on switching upon ATP binding; sequences stand for … in TCGTCGGCAGCGTCAGATGTGTATAAGAGACAGTTTTTTTTTTTTTTTTTTTTTTTTT…TC; conditions: aptamer strand: ATP DNA aptamer (quencher-CACCTGGGGGAGTATTGCGGAGGAAGG + anchor), 100 nM annealed; ATP concentration: 500 uM
Outline: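 The fluorescence ratio divides summed target-cycle Cy3 intensity by summed buffer-cycle Cy3 intensity for each cluster and is averaged per switch-domain sequence. Cy3-labelled switching-strand clusters on a modified Illumina MiSeq flow-cell were annealed to 100 nM quencher-labelled ATP aptamer, then imaged in selection buffer and again after 15 min with 500 uM ATP at 22 °C. Five such cycles were run, with NaOH stripping and re-annealing between them, and clusters outside 100-1000 RFU were excluded.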
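Also: ATP exposure 15 min at 22 °C before imaging.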

Row | Sequence | switch fluorescence ratio
1 | GGGATGCTCT | 1.01 ± 0.017
2 | GGGATGGGAA | 1.02 ± 0.022
3 | GGGATGGGGT | 0.988 ± 0.029
4 | GGGATGGGTC | 0.985 ± 0.02
5 | GGGATGTGCT | 0.957 ± 0.012
6 | GGGATGTGTT | 0.9635 ± 0.0069
7 | GGGATTAGTC | 1.05 ± 0.088
8 | GGGATTCGTC | 0.994 ± 0.02
9 | GGGATTGGCA | 0.9798 ± 0.0092
10 | GGGATTGTTT | 0.965 ± 0.021
11 | GGGATTTGGG | 0.9745 ± 0.0088
12 | GGGATTTGTG | 0.972 ± 0.01
13 | GGGCAACGAC | 1.07 ± 0.0093
14 | GGGCAACTTT | 0.997 ± 0.049
15 | GGGCAAGAAT | 0.997 ± 0.017
16 | GGGCAAGGGG | 1.02 ± 0.028
17 | GGGCAAGTGG | 0.959 ± 0.014
18 | GGGCAATTAG | 1.15 ± 0.014
19 | GGGCAATTGC | 1.01 ± 0.059
20 | GGGCACGTTT | 0.995 ± 0.011
21 | GGGCAGATAT | 1.02 ± 0.017
22 | GGGCAGGGGG | 1.01 ± 0.04
23 | GGGCATAAAG | 1.02 ± 0.025
24 | GGGCATAGGT | 0.982 ± 0.018
25 | GGGCATGGCT | 0.99 ± 0.016
26 | GGGCCATAAG | 0.988 ± 0.052

Row | Sequence | switch fluorescence ratio
27 | GGGCCATATT | 0.963 ± 0.044
28 | GGGCCATGGT | 0.9815 ± 0.0072
29 | GGGCCCATTG | 0.963 ± 0.04
30 | GGGCCCGCTG | 0.987 ± 0.049
31 | GGGCCCGGGA | 0.986 ± 0.018
32 | GGGCCCGTAT | 1.014 ± 0.0091
33 | GGGCCCTGGT | 1.01 ± 0.013
34 | GGGCCGGCTG | 1.01 ± 0.036
35 | GGGCCTCGGG | 0.953 ± 0.04
36 | GGGCCTGATG | 1.01 ± 0.012
37 | GGGCGAAGGG | 0.987 ± 0.032
38 | GGGCGGACGT | 0.969 ± 0.041
39 | GGGCGGGAAC | 1.014 ± 0.0088
40 | GGGCGGGGTG | 1.03 ± 0.025
41 | GGGCGTCGTC | 0.993 ± 0.052
42 | GGGCTAGAGG | 0.974 ± 0.022
43 | GGGCTAGATG | 1 ± 0.018
44 | GGGCTAGTTA | 0.9948 ± 0.0073
45 | GGGCTATAGA | 0.9984 ± 0.0095
46 | GGGCTATAGC | 0.997 ± 0.056
47 | GGGCTATGCT | 1 ± 0.037
48 | GGGCTCATCA | 0.998 ± 0.041
49 | GGGCTGGTTC | 1.03 ± 0.017
50 | GGGCTGTAAG | 0.997 ± 0.04
51 | GGGCTGTGTG | 1.02 ± 0.035
52 | GGGCTTAGAG | 1.012 ± 0.007

Row | Sequence | switch fluorescence ratio
53 | GGGCTTGCAA | 1.04 ± 0.016
54 | GGGCTTTCTC | 1.09 ± 0.055
55 | GGGCTTTTGG | 0.9868 ± 0.0012
56 | GGGCTTTTTT | 0.98 ± 0.018
57 | GGGGAAAAAT | 1.01 ± 0.032
58 | GGGGAAAACA | 1 ± 0.014
59 | GGGGAAAGGC | 1.02 ± 0.018
60 | GGGGAAAGTA | 1.03 ± 0.03
61 | GGGGAAATAT | 0.981 ± 0.024
62 | GGGGAACTGG | 1.01 ± 0.023
63 | GGGGAAGAAT | 0.9784 ± 0.0021
64 | GGGGAAGAGA | 0.96964 ± 5.5e-05
65 | GGGGAAGAGT | 0.996 ± 0.052
66 | GGGGAAGATA | 0.9862 ± 0.0025
67 | GGGGAAGGTG | 1.79 ± 1
68 | GGGGAAGTAG | 0.994 ± 0.018
69 | GGGGAATCGC | 0.97 ± 0.055
70 | GGGGAATGAA | 1.019 ± 0.009
71 | GGGGAATGGG | 1.01 ± 0.028
72 | GGGGAATGGT | 1.01 ± 0.074
73 | GGGGAATGTG | 0.963 ± 0.013
74 | GGGGAATTAG | 0.973 ± 0.008
75 | GGGGACAGTT | 1.02 ± 0.017
76 | GGGGACCGGT | 1.054 ± 0.0023
77 | GGGGACGGGA | 0.989 ± 0.024
78 | GGGGACGGTA | 1.03 ± 0.027

Row | Sequence | switch fluorescence ratio
79 | GGGGACGTCA | 0.998 ± 0.012
80 | GGGGACGTGG | 0.965 ± 0.011
81 | GGGGAGAAGG | 0.981 ± 0.031
82 | GGGGAGCGGC | 1.02 ± 0.0027
83 | GGGGAGGAAT | 0.971 ± 0.024
84 | GGGGAGGACT | 1 ± 0.021
85 | GGGGAGGAGG | 0.986 ± 0.0087
86 | GGGGAGGAGT | 1.01 ± 0.026
87 | GGGGAGGATT | 0.986 ± 0.027
88 | GGGGAGGGTA | 1.03 ± 0.015
89 | GGGGAGTAGC | 0.999 ± 0.03
90 | GGGGAGTCGG | 1.01 ± 0.047
91 | GGGGAGTTCG | 0.983 ± 0.019
92 | GGGGATAAGG | 0.984 ± 0.042
93 | GGGGATACGG | 1.026 ± 0.0047
94 | GGGGATAGAT | 0.982 ± 0.027
95 | GGGGATAGT | 1 ± 0.015
96 | GGGGATGCGG | 1.02 ± 0.021
97 | GGGGATGCTC | 1.03 ± 0.018
98 | GGGGATGGGT | 0.999 ± 0.045
99 | GGGGATGTGA | 0.967 ± 0.037
100 | GGGGATGTTG | 0.996 ± 0.013
101 | GGGGATTATT | 0.991 ± 0.036
102 | GGGGATTCT | 0.9936 ± 0.0094
103 | GGGGCACGGC | 1.01 ± 0.03
104 | GGGGCAGCTG | 1.06 ± 0.08

Row | Sequence | switch fluorescence ratio
105 | GGGGCAGGAC | 1.54 ± 0.7
106 | GGGGCAGTTA | 1 ± 0.025
107 | GGGGCATCTT | 1.01 ± 0.046
108 | GGGGCCAAGG | 0.981 ± 0.017
109 | GGGGCCACGC | 1.01 ± 0.034
110 | GGGGCCCGAA | 0.981 ± 0.035
111 | GGGGCCGAGG | 0.9573 ± 0.0075
112 | GGGGCCGATA | 1.04 ± 0.079
113 | GGGGCCTCGG | 0.997 ± 0.019
114 | GGGGCGCGCC | 1.022 ± 0.0077
115 | GGGGCGGAGT | 0.989 ± 0.055
116 | GGGGCGGCGG | 0.962 ± 0.066
117 | GGGGCGGGAA | 0.982 ± 0.05
118 | GGGGCGGGAG | 1.03 ± 0.042
119 | GGGGCGTATG | 0.993 ± 0.02
120 | GGGGCGTGAG | 0.998 ± 0.034
121 | GGGGCTCATA | 0.9876 ± 0.0072
122 | GGGGCTGCGC | 1.05 ± 0.1
123 | GGGGCTGGGA | 0.986 ± 0.027
124 | GGGGCTGGTA | 1.003 ± 0.0043
125 | GGGGCTGGTT | 0.99 ± 0.024
126 | GGGGCTTCTG | 1.03 ± 0.019
127 | GGGGCTTGGA | 1 ± 0.017
128 | GGGGCTTGTA | 1 ± 0.016
129 | GGGGCTTTAT | 0.992 ± 0.013
130 | GGGGCTTTCG | 1 ± 0.072

Row | Sequence | switch fluorescence ratio
131 | GGGGGAAAG | 1 ± 0.025
132 | GGGGGAACAG | 0.991 ± 0.011
133 | GGGGGACCCA | 0.982 ± 0.06
134 | GGGGGACTAA | 0.996 ± 0.042
135 | GGGGGAGACT | 1 ± 0.051
136 | GGGGGAGAG | 0.979 ± 0.034
137 | GGGGGAGGTT | 0.977 ± 0.029
138 | GGGGGATAGC | 0.991 ± 0.023
139 | GGGGGATAGG | 1 ± 0.025
140 | GGGGGATCAG | 0.992 ± 0.045
141 | GGGGGATGCC | 1.15 ± 0.22
142 | GGGGGATGGC | 0.975 ± 0.064
143 | GGGGGATGGT | 0.978 ± 0.035
144 | GGGGGATTAC | 1.06 ± 0.083
145 | GGGGGATTGA | 1.0228 ± 0.00054
146 | GGGGGATTGT | 1.02 ± 0.043
147 | GGGGGATTTA | 0.992 ± 0.022
148 | GGGGGCAAGC | 1.25 ± 0.35
149 | GGGGGCAATG | 1.13 ± 0.064
150 | GGGGGCACGA | 1.07 ± 0.021
151 | GGGGGCAGCC | 1.05 ± 0.083
152 | GGGGGCAGGA | 0.987 ± 0.017
153 | GGGGGCATAT | 1.02 ± 0.026

— the supplement of paper PMC10126150
